According to article doi:10.1101/348268:

How the values were obtained:
[1] = target: Mesoplasma florum ribonucleotide reductase protein R2 (MfR2), active form with meta-hydroxylated Tyr126 (DOPA) (Mesoplasma florum); test: crystal structure
[2] = target: Mesoplasma florum ribonucleotide reductase protein R2 (MfR2), inactive form with unmodified Tyr126 (Mesoplasma florum); test: crystal structure

Row | stoichiometry N [1] | stoichiometry N [2] | Substance
1 | 2 |  | Mesoplasma florum ribonucleotide reductase protein R2 (MfR2), active form with meta-hydroxylated Tyr126 (DOPA) (enzyme)
2 |  | 2 | Mesoplasma florum ribonucleotide reductase protein R2 (MfR2), inactive form with unmodified Tyr126 (enzyme)
